Data from US7589207B2, “Cyclohexyl compounds as CCR5 antagonists” (SmithKline Beecham Corporation, priority 2002, dated 2009).

Target: T1, human CCR5 chemokine receptor (Homo sapiens, UniProt P51681)
T1 construct: host or cells: Chinese Hamster Ovary (CHO) cells; membranes prepared from the cell pellet
Test: CC-Chemokine Receptor-5 binding by Scintillation Proximity Assay (CCR5 SPA), displacement of 125I-MIP1α
Conditions: standard compound, 14-point concentration-response curve in triplicate, starting concentration 1 μM
Experimental: CC-Chemokine Receptor-5 Binding by Scintillation Proximity Assay (CCR5 SPA) Scintillation Proximity Assay for the Human CC-Chemokine Receptor, CCR-5
This protocol describes a high-throughput screen using SPA binding to identify compounds that inhibit binding of ^125I-MIP1α to the human CCR5 chemokine receptor.
Human CCR5 receptors were expressed in Chinese Hamster Ovary (CHO) cells, registration # 12025. Cells were grown in suspension and a 50 to 80 ml CCR5 cell pellet was prepared. […]
The saturation curve binding experiment is performed by adding varying amounts of [^125I]MIP1α (0-8.5 nM to membranes and beads in concentrations chosen from the optimal protein/bead ratio. The data is analyzed using a non-linear curve-fitting program. The Kd and Bmax are derived from the curve. […]

T1 sequence (P51681 whole entry): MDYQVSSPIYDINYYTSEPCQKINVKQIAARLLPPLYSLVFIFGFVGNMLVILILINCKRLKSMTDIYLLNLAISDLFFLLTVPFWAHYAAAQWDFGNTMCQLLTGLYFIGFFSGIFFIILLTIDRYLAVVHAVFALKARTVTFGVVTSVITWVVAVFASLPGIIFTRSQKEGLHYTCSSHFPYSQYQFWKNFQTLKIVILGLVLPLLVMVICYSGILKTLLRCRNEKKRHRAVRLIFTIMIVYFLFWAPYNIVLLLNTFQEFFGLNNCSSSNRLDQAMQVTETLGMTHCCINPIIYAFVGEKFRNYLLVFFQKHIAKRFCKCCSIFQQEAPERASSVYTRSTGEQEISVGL

## MIP1α: natural chemokine ligand of CCR5, used as the standard compound in the CCR5 SPA binding assay
  average historical pKi: 7.6
